Where a chain is given by its changes, count along the chain named. In names and notes the source's numbering stands.

Series [1] concerns the molecule itself. Nature of the series: SEC; reduced samples: 30 uM protein treated with 5 mM TCEP, excess removed by PD10; Phenomenex BioSep-SEC-S2000, 100 mM Tris-HCl pH 7.4, 1 mL/min, absorbance at 280 nm; self-association (decamer, dimer). For orientation: In gel filtration, larger molecules generally elute earlier.
Series [2] concerns the molecule itself. Nature of the series: SEC; oxidized samples (disulfide): reduced 30 uM protein treated with 36 uM H2O2 for 30 min at room temperature; Phenomenex BioSep-SEC-S2000, 100 mM Tris-HCl pH 7.4, 1 mL/min, absorbance at 280 nm; self-association (decamer, dimer).

B1: AhpC from Pseudomonas aeruginosa (enzyme, UniProt Q9I6Z3 1-187, looked up)
chain: MSLINTQVQPFKVNAFHNGKFIEVTEESLKGKWSVLIFMPAAFTFNCPTEIEDAANNYGEFQKAGAEVYIVTTDTHFSHKVWHETSPAVGKAQFPLIGDPTHQLTNAFGVHIPEEGLALRGTFVINPEGVIKTVEIHSNEIARDVGETVRKLKAAQYTAAHPGEVCPAKWKEGEKTLAPSLDLVGKI
notes: The forward primer carries the ATG of the Nde I site followed by the gene's own ATG, so one more Met may precede the natural start; The strain that was amplified (ATCC29853) is not the strain of the genome used for the primers; also called PaAhpC; ahpc (Pa); source: E. coli BL21 (DE3), pET15b, purified (IMAC HisTrap, PD10 desalting)
The stoichiometry N is the number of molecules, sites or subunits per partner or assembly. With B1, the “stoichiometry N” value came to 10 in series [1] and 2 in series [2].

B2: PaAhpC^T44S (enzyme)
chain: B1 chain with T44S
notes: AhpC of Pseudomonas aeruginosa with the catalytic triad Thr changed to Ser; printed as T44S in the SEC text and legend and as T43S in the primers' names and other legends (one mutant; mutagenic primer encodes AAFSFNC); Made by site directed mutagenesis (Quick Change II) of the pET15b-ahpc (Pa) plasmid; also called PaAhpC^T43S; source: E. coli BL21 (DE3), pET15b, purified (IMAC HisTrap, …)
Consider B2, for which the “stoichiometry N” value in series [1] is 10.

The values are drawn from PMC8300647, “Effects of Serine or Threonine in the Active Site of Typical 2-Cys Prx on Hyperoxidation Susceptibility and on Chaperone Activity” (Antioxidants, 2021).
